Measurements from PMC9482650, “Quantitative fragmentomics allow affinity mapping of interactomes” (Nature Communications, 2022).

Columns and labels:
Experiment in all cases: holdup assay
Parameters in all cases: key: below the threshold = too weak to quantify, mostly under pKd 3.1 to 4
Settings in all cases: plain residues with an end cap or a label only (N-terminal biotin on a linker: ado-ado)
APBA2_1, Q99767 = molecular target: T1, APBA2_1, Q99767
T1 sequence (Q99767 563-664, limits assumed, looked up): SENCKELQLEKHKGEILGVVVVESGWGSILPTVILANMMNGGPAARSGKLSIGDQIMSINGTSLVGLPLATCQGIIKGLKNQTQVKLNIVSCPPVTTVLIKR

APBA2_2, Q99767 = molecular target: T2, APBA2_2, Q99767
T2 sequence (Q99767 654-744, limits assumed, looked up): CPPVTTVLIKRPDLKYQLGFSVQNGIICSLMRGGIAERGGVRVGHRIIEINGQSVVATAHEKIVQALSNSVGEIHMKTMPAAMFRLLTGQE

ARHGEF11, O15085 = molecular target: T3, ARHGEF11, O15085
T3 sequence (O15085 42-136, limits assumed, looked up): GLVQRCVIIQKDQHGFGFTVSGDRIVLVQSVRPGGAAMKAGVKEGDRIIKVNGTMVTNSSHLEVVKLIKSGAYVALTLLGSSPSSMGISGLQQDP

CASK, O14936 = molecular target: CASK, O14936
DFNB31_1, Q9P202 = molecular target: T4, DFNB31_1, Q9P202
T4 sequence (Q9P202 135-233, limits assumed, looked up): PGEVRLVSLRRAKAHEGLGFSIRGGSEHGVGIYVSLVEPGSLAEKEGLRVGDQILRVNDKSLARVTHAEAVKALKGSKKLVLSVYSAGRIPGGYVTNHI

DLG1_3, Q12959 = molecular target: DLG1_3, Q12959
DLG3_3, Q92796 = molecular target: T5, DLG3_3, Q92796
T5 sequence (Q92796 374-475, limits assumed, looked up): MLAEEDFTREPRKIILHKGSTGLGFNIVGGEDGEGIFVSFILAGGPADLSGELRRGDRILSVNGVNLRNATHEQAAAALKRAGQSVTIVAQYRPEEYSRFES

DLG4_1, P78352 = molecular target: DLG4_1, P78352
GIPC2, Q8TF65 = molecular target: GIPC2, Q8TF65
GORASP2, Q9H8Y8 = molecular target: GORASP2, Q9H8Y8
GRID2IP_1, A4D2P6 = molecular target: GRID2IP_1, A4D2P6
GRIP1_2, Q9Y3R0 = molecular target: T6, GRIP1_2, Q9Y3R0
T6 sequence (Q9Y3R0 145-248, limits assumed, looked up): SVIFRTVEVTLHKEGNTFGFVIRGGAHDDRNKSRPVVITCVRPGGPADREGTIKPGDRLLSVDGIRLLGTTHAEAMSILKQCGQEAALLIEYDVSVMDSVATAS

GRIP1_3, Q9Y3R0 = molecular target: T7, GRIP1_3, Q9Y3R0
T7 sequence (Q9Y3R0 247-346, limits assumed, looked up): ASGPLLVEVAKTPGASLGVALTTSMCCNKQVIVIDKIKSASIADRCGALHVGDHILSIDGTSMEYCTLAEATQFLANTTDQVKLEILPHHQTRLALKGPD

GRIP1_7, Q9Y3R0 = molecular target: T8, GRIP1_7, Q9Y3R0
T8 sequence (Q9Y3R0 999-1096, limits assumed, looked up): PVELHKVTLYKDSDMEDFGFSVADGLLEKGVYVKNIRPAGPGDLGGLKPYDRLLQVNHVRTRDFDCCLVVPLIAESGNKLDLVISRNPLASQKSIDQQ

IL16_4, Q14005 = molecular target: IL16_4, Q14005
LNX1_3, Q8TBB1 = molecular target: LNX1_3, Q8TBB1
LNX2_3, Q8N448 = molecular target: T9, LNX2_3, Q8N448
T9 sequence (Q8N448 463-564, limits assumed, looked up): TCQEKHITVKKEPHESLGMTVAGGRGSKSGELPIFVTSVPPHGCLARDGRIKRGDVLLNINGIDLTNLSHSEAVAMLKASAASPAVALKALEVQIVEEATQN

MAST2, Q6P0Q8 = molecular target: MAST2, Q6P0Q8
MPP2, Q14168 = molecular target: T10, MPP2, Q14168
T10 sequence (Q14168 180-250, limits assumed, looked up): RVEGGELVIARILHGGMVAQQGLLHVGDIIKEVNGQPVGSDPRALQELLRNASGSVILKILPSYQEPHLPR

MPP6, Q9NZW5 = molecular target: T11, MPP6, Q9NZW5
T11 sequence (Q9NZW5 125-219, limits assumed, looked up): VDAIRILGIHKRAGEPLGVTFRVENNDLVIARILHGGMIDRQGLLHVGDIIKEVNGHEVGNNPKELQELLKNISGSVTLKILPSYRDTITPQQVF

NHERF3_4, Q5T2W1 = molecular target: T12, NHERF3_4, Q5T2W1
T12 sequence (Q5T2W1 373-468, limits assumed, looked up): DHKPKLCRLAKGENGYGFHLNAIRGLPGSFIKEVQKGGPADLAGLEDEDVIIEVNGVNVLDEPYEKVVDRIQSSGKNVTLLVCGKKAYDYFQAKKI

NOS1, P29475 = molecular target: NOS1, P29475
SNTB1, Q13884 = molecular target: T13, SNTB1, Q13884
T13 sequence (Q13884 107-205, limits assumed, looked up): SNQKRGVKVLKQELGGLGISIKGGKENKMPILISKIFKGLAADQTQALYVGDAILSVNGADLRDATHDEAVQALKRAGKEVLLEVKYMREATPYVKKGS

TJP1_3, Q07157 = molecular target: TJP1_3, Q07157
TJP1_3, Q07157, sequence (Q07157 416-512): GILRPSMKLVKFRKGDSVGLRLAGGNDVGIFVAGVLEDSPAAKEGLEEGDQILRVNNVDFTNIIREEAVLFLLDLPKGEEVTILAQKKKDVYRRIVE

GIPC2, Q8TF65, sequence (Q8TF65 112-203): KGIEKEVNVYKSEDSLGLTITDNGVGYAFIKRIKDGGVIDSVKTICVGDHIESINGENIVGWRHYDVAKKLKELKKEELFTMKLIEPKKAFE
CASK, O14936, sequence (O14936 487-570): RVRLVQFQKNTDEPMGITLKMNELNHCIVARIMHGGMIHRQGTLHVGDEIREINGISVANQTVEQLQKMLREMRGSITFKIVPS
DLG1_3, Q12959, sequence (Q12959 457-571): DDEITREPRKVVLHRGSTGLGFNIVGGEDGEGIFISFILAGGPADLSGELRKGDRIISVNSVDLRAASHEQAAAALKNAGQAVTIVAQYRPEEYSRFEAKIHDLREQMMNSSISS
GRID2IP_1, A4D2P6, sequence (A4D2P6 1-87): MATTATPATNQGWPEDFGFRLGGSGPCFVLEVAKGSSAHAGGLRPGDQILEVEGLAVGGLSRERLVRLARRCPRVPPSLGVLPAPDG
IL16_4, Q14005, sequence (Q14005 1229-1329): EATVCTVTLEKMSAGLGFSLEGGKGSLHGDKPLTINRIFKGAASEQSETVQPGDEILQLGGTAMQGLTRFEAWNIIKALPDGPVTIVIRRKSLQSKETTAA
LNX1_3, Q8TBB1, sequence (Q8TBB1 500-596): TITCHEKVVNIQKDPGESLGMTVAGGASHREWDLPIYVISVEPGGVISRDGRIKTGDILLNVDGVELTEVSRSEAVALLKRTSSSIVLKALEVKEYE
MAST2, Q6P0Q8, sequence (Q6P0Q8 1099-1202): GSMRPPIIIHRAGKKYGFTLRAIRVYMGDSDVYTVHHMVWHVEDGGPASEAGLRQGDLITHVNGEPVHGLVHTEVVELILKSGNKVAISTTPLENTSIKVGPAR
DLG4_1, P78352, sequence (P78352 62-152): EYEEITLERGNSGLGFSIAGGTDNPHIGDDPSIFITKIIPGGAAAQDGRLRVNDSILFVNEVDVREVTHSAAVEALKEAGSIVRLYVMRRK
NOS1, P29475, sequence (P29475 9-101): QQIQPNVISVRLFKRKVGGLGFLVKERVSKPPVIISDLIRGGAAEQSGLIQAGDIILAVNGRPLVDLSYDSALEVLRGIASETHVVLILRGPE

B1: KCNA7, Q96RP8 (peptide)
chain: PPGKHLVTEV
APBA2_1, Q99767
  pKd: below the threshold
APBA2_2, Q99767
  pKd: below the threshold
ARHGEF11, O15085
  pKd: 5.2
CASK, O14936
  pKd: below the threshold
DFNB31_1, Q9P202
  pKd: below the threshold
DLG1_3, Q12959
  pKd: 4.09
DLG3_3, Q92796
  pKd: 4.33
DLG4_1, P78352
  pKd: 4.64
GIPC2, Q8TF65
  pKd: below the threshold
GORASP2, Q9H8Y8
  pKd: 4.39
GRID2IP_1, A4D2P6
  pKd: below the threshold
GRIP1_2, Q9Y3R0
  pKd: below the threshold
GRIP1_3, Q9Y3R0
  pKd: below the threshold
GRIP1_7, Q9Y3R0
  pKd: below the threshold
IL16_4, Q14005
  pKd: below the threshold
LNX1_3, Q8TBB1
  pKd: below the threshold
LNX2_3, Q8N448
  pKd: below the threshold
MAST2, Q6P0Q8
  pKd: 5.21
MPP2, Q14168
  pKd: below the threshold
MPP6, Q9NZW5
  pKd: below the threshold
NHERF3_4, Q5T2W1
  pKd: below the threshold
NOS1, P29475
  pKd: 3.7
SNTB1, Q13884
  pKd: 4.32
TJP1_3, Q07157
  pKd: below the threshold

B2: PLEKHA1, Q9HB21 (peptide)
chain: DDASLPVSDV
APBA2_1, Q99767
  pKd: below the threshold
APBA2_2, Q99767
  pKd: below the threshold
ARHGEF11, O15085
  pKd: 4.22
CASK, O14936
  pKd: below the threshold
DFNB31_1, Q9P202
  pKd: 3.75
DLG1_3, Q12959
  pKd: below the threshold
DLG3_3, Q92796
  pKd: below the threshold
DLG4_1, P78352
  pKd: below the threshold
GIPC2, Q8TF65
  pKd: below the threshold
GORASP2, Q9H8Y8
  pKd: below the threshold
GRID2IP_1, A4D2P6
  pKd: below the threshold
GRIP1_2, Q9Y3R0
  pKd: below the threshold
GRIP1_3, Q9Y3R0
  pKd: below the threshold
GRIP1_7, Q9Y3R0
  pKd: below the threshold
IL16_4, Q14005
  pKd: below the threshold
LNX1_3, Q8TBB1
  pKd: below the threshold
LNX2_3, Q8N448
  pKd: below the threshold
MAST2, Q6P0Q8
  pKd: 4.73
MPP2, Q14168
  pKd: below the threshold
MPP6, Q9NZW5
  pKd: below the threshold
NHERF3_4, Q5T2W1
  pKd: below the threshold
NOS1, P29475
  pKd: below the threshold
SNTB1, Q13884
  pKd: 4.59
TJP1_3, Q07157
  pKd: below the threshold

B3: NCF1, P14598 (peptide)
chain: STKRKLASAV
APBA2_1, Q99767
  pKd: below the threshold
APBA2_2, Q99767
  pKd: below the threshold
ARHGEF11, O15085
  pKd: 3.74
CASK, O14936
  pKd: below the threshold
DFNB31_1, Q9P202
  pKd: below the threshold
DLG1_3, Q12959
  pKd: below the threshold
DLG3_3, Q92796
  pKd: below the threshold
DLG4_1, P78352
  pKd: below the threshold
GIPC2, Q8TF65
  pKd: below the threshold
GORASP2, Q9H8Y8
  pKd: below the threshold
GRID2IP_1, A4D2P6
  pKd: below the threshold
GRIP1_2, Q9Y3R0
  pKd: below the threshold
GRIP1_3, Q9Y3R0
  pKd: below the threshold
GRIP1_7, Q9Y3R0
  pKd: below the threshold
IL16_4, Q14005
  pKd: below the threshold
LNX1_3, Q8TBB1
  pKd: below the threshold
LNX2_3, Q8N448
  pKd: below the threshold
MAST2, Q6P0Q8
  pKd: 4.54
MPP2, Q14168
  pKd: below the threshold
MPP6, Q9NZW5
  pKd: below the threshold
NHERF3_4, Q5T2W1
  pKd: below the threshold
NOS1, P29475
  pKd: 4.07
SNTB1, Q13884
  pKd: below the threshold
TJP1_3, Q07157
  pKd: below the threshold

B4: FAM110B, Q8TC76 (peptide)
chain: ARESQKVSHV
APBA2_1, Q99767
  pKd: below the threshold
APBA2_2, Q99767
  pKd: below the threshold
ARHGEF11, O15085
  pKd: 4.19
CASK, O14936
  pKd: below the threshold
DFNB31_1, Q9P202
  pKd: 3.62
DLG1_3, Q12959
  pKd: below the threshold
DLG3_3, Q92796
  pKd: below the threshold
DLG4_1, P78352
  pKd: 4.06
GIPC2, Q8TF65
  pKd: below the threshold
GORASP2, Q9H8Y8
  pKd: 4.88
GRID2IP_1, A4D2P6
  pKd: below the threshold
GRIP1_2, Q9Y3R0
  pKd: below the threshold
GRIP1_3, Q9Y3R0
  pKd: below the threshold
GRIP1_7, Q9Y3R0
  pKd: below the threshold
IL16_4, Q14005
  pKd: below the threshold
LNX1_3, Q8TBB1
  pKd: below the threshold
LNX2_3, Q8N448
  pKd: below the threshold
MAST2, Q6P0Q8
  pKd: 4.76
MPP2, Q14168
  pKd: below the threshold
MPP6, Q9NZW5
  pKd: below the threshold
NHERF3_4, Q5T2W1
  pKd: below the threshold
NOS1, P29475
  pKd: 3.55
SNTB1, Q13884
  pKd: 4.52
TJP1_3, Q07157
  pKd: below the threshold

B5: SCN5A, Q14524 (peptide)
chain: SPDRDRESIV
APBA2_1, Q99767
  pKd: below the threshold
APBA2_2, Q99767
  pKd: below the threshold
ARHGEF11, O15085
  pKd: 3.51
CASK, O14936
  pKd: below the threshold
DFNB31_1, Q9P202
  pKd: 3.58
DLG1_3, Q12959
  pKd: below the threshold
DLG3_3, Q92796
  pKd: below the threshold
DLG4_1, P78352
  pKd: 4.46
GIPC2, Q8TF65
  pKd: 4.06
GORASP2, Q9H8Y8
  pKd: 3.88
GRID2IP_1, A4D2P6
  pKd: below the threshold
GRIP1_2, Q9Y3R0
  pKd: below the threshold
GRIP1_3, Q9Y3R0
  pKd: below the threshold
GRIP1_7, Q9Y3R0
  pKd: below the threshold
IL16_4, Q14005
  pKd: below the threshold
LNX1_3, Q8TBB1
  pKd: below the threshold
LNX2_3, Q8N448
  pKd: below the threshold
MAST2, Q6P0Q8
  pKd: 4.53
MPP2, Q14168
  pKd: below the threshold
MPP6, Q9NZW5
  pKd: below the threshold
NHERF3_4, Q5T2W1
  pKd: below the threshold
NOS1, P29475
  pKd: 3.7
SNTB1, Q13884
  pKd: 5.66
TJP1_3, Q07157
  pKd: below the threshold

B6: FZD2, Q14332 (peptide)
chain: TNSRHGETTV
APBA2_1, Q99767
  pKd: below the threshold
APBA2_2, Q99767
  pKd: below the threshold
ARHGEF11, O15085
  pKd: 4.07
CASK, O14936
  pKd: below the threshold
DFNB31_1, Q9P202
  pKd: 3.78
DLG1_3, Q12959
  pKd: 4.14
DLG3_3, Q92796
  pKd: 4.24
DLG4_1, P78352
  pKd: 4.85
GIPC2, Q8TF65
  pKd: 4.22
GORASP2, Q9H8Y8
  pKd: 4.19
GRID2IP_1, A4D2P6
  pKd: below the threshold
GRIP1_2, Q9Y3R0
  pKd: below the threshold
GRIP1_3, Q9Y3R0
  pKd: below the threshold
GRIP1_7, Q9Y3R0
  pKd: below the threshold
IL16_4, Q14005
  pKd: below the threshold
LNX1_3, Q8TBB1
  pKd: below the threshold
LNX2_3, Q8N448
  pKd: below the threshold
MAST2, Q6P0Q8
  pKd: 5.05
MPP2, Q14168
  pKd: below the threshold
MPP6, Q9NZW5
  pKd: below the threshold
NHERF3_4, Q5T2W1
  pKd: below the threshold
NOS1, P29475
  pKd: 3.79
SNTB1, Q13884
  pKd: 4.75
TJP1_3, Q07157
  pKd: below the threshold
